Molecular target: the molecule itself
Assay: SEC; size-exclusion chromatography of recombinant YwlG

B1: recombinant YwlG (natural protein, S. aureus)
chain: KDLTMLLDELKDMSFFNKGDICLIGCSTSEVIGEKIGTVGSMEVAETIFNALDVVSKETGVTFAFQGCEHINRAITIEKSQYNPLTMEEVSVVPDVHAGGSLATYAFQHMKDPIVVEHITVPCGIDIGQTLIGMHIKHVCVPVRTSVKQVGQAIVTIATSRPKKIGGERAKYQ
modifications: C69 was oxidized in the crystals
notes: YwlG of Staphylococcus aureus, 174 a.a., locus tag SAUSA300_2068; also called S. aureus YwlG; source: E. coli, purified (described in SI Appendix)
- stoichiometry N: 6

Source: PMC9522360, “Bidirectional sequestration between a bacterial hibernation factor and a glutamate metabolizing protein” (Proceedings of the National Academy of Sciences of the …, 2022)
